# B1: mRNA-splicing (parent)
# chain: AGUUGCUGCUGGGAGCUCCAGCACAGUGAAAUGGACAGAAGGGCAGAGCAA
# Variants of: B1
# Test: exon inclusion enrichment index; higher = more inclusion; WT1 exon 5 minigene, HEK293
row,Variant,exon inclusion enrichment index
1,AGUUGACGACGGGAGCUCCAGCACAGUGAAAUGGACUGAAGGGCAGAGCAA,2.49
2,AGUGCAAGAAGGGAGCUCCAGCACAGUGAAAUGGACAGAAGGGCAGAGCAA,0.624
3,AGUUAGGGAUGGGAGCUCCAGCACAGUGAAAUGGACAGAAAUGCAGAGCAA,0.00291
4,AGUUCACACGGGGAGCUCCAGCACAGUGAAAUGGACAGAAGGGCAGAGCAA,0.737
5,AGUUCGCCCCGGGAGCUCCAGCACAGUGAAAUGGACAGAAGGGCAGAGCAA,2.87
6,AGUUGUAGCUGGGAGCUCCAGCACAGUGAAAUGGACAGAAGGGCAGAGCAA,0.0485
7,AGUUACCACCUGGAGCUCCAGCACAGUGAAAUGGACAGAAGGGCAGAGCAA,1.6
8,AGUUGACGACGGGAGCUCCAGCACAGUGAAUGGGACAGAAGGGCAGAGCAA,2.15
9,AGUUAGGGAAGGGAGCUCCAGCACAGUGAAAUGGACAGAAGGGCAGAGCAA,0.00068
10,AGUUAUAAAUGGGAGCUCCAGCACAGUGAAAUGGACAGAAGGGCAGAGCAA,0.0655
11,AGUUAUAUAUGGGACUUCCAGCACAGUGAAAUGGACAGAAGGGCAGAGCAA,0.0353
12,AGUUGACGACGGGAGCUCCAGCACAGUGAAAUGGACAGAAGGGCACAGCAA,2.33
13,AGUUGCUGCUGGGAGCUCCAGCACAGUGAAAUGGACAGAAGGGUCGAGCAA,0.266
14,AGUUAGGGAUGGGAGCUCCAGCACCAUGAAAUGGACAGAAGGGCAGAGCAA,0.00349
15,AGUUACCACCGGGAGCUCCUCCACAGUGAAAUGGACAGAAGGGCAGAGCAA,2.33
16,AGUUAUAUAUGGGAGCUCCAGCACAGUGCUAUGGACAGAAGGGCAGAGCAA,0.0308
17,AGCAUCUUUUGGGAGCUCCAGCACAGUGAAAUGGACAGAAGGGCAGAGCAA,0.356
18,AGUUAGGGAUGGGAGCUCCAGCACAGUGAAAUGGACAAAAGGGCAGAGCAA,0.000584
19,AGUUAUAUAUGGGAGCUCCAGCACAGUGAAAUAUACAGAAGGGCAGAGCAA,0.0125
20,AGUUGAGCAAGGGAGCUCCAGCACAGUGAAAUGGACAGAAGGGCAGAGCAA,0.124
21,AGUUCUUCUCGGGAGCUCCAGCACAGUGAAAUGGACAGAAGUACAGAGCAA,3.34
22,AGUUGAAGAAGGGAGCUCCACGACAGUGAAAUGGACAGAAGGGCAGAGCAA,1.63
23,AGUUGAAGAAGGGAGCUCCAGCACUGUGAAAUGGACAGAAGGGCAGAGCAA,1.04
24,AGUUACCACCGCUAGCUCCAGCACAGUGAAAUGGACAGAAGGGCAGAGCAA,0.139
25,AGUUAUAUAUGGGAGCUCCAGCACAGUGAAAUGAACAGAAGGGCAGAGCAA,0.0272
26,AGUUGCUGCUGGGAGCUCGUGCACAGUGAAAUGGACAGAAGGGCAGAGCAA,2.21

row,Variant,exon inclusion enrichment index
1,AGUUCGCGCCGGGAGCGUCAGCACAGUGAAAUGGACAGAAGGGCAGAGCAA,3.11
2,AGUUCACACAGGGAGCUCCAGCACAGUAGAAUGGACAGAAGGGCAGAGCAA,0.0244
3,AGUUAUAUAUGGGAGCUCCAGCACAGUGGAAUGGACAGAAGGGCAGAGCAA,0.164
4,AGUUGAAGAAGGGAGCUCCAGCACAGUGAAAUGGACAGAAGGGCCGAGCAA,0.979
5,AGUUGACGACGGGAGCUCCAGUACAGUGAAAUGGACAGAAGGGCAGAGCAA,2.84
6,AGUUCAACCAGGGAGCUCCAGCACAGUGAAAUGGACAGAAGGGCAGAGCAA,0.514
7,ACUUUCUUUUGGGAGCUCCAGCACAGUGAAAUGGACAGAAGGGCAGAGCAA,0.122
8,AGUUACCACCGGUUGCUCCAGCACAGUGAAAUGGACAGAAGGGCAGAGCAA,1.08
9,AGUUACCACCGGUGGCUCCAGCACAGUGAAAUGGACAGAAGGGCAGAGCAA,0.535
10,AGUCCGGGAUGGGAGCUCCAGCACAGUGAAAUGGACAGAAGGGCAGAGCAA,2.21
11,AGUUAGGGACCGGAGCUCCAGCACAGUGAAAUGGACAGAAGGGCAGAGCAA,0.0142
12,AGUUGCUGCUGGGAGCUCACGCACAGUGAAAUGGACAGAAGGGCAGAGCAA,1.81
13,AGUUCGCGCCGGGAGCUCCAGCACAGUGAAAUGGACAGAAGGGCCCAGCAA,2.31
14,AGAGAGGGAUGGGAGCUCCAGCACAGUGAAAUGGACAGAAGGGCAGAGCAA,0.018
15,AGUUGACGACGGGUACUCCAGCACAGUGAAAUGGACAGAAGGGCAGAGCAA,2.06
16,AGUUGACGUUGGGAGCUCCAGCACAGUGAAAUGGACAGAAGGGCAGAGCAA,1.42
17,AGUUGAAGAAGGGAGUCCCAGCACAGUGAAAUGGACAGAAGGGCAGAGCAA,0.225
18,AGUUGCUGCUGGGAGCUCCAGCACAGUGAAAAUGACAGAAGGGCAGAGCAA,0.0657
19,AGUUGACGACGGGAGCUCCAGCACAGUGAAAUGGACAGAAGGGCAUGGCAA,2.8
20,AGUUCACACAGGGAGCUCCAGCACGAUGAAAUGGACAGAAGGGCAGAGCAA,0.663
21,AGUUGCUGCUGGGAGCUCCAGAACAGUGAAAUGGACAGAAGGGCAGAGCAA,2.09
22,AGUUCUUAACGGGAGCUCCAGCACAGUGAAAUGGACAGAAGGGCAGAGCAA,0.564
23,AGUUCUUCUCGGGAGCUCCAGCACAGUGAAAAGGACAGAAGGGCAGAGCAA,1.46
24,AGUUCUUCUCGGGAGCUCCAGCGAAGUGAAAUGGACAGAAGGGCAGAGCAA,3.38
25,AGUUGAAGAAGGGAGCUCCAGCACAGUGAAAUGGACAGAUUGGCAGAGCAA,0.373
26,AGUUUCUUUUGGGAGCUCCAGCACAGUGAAAUGGACAGAAGGGCCCAGCAA,0.0849

row,Variant,exon inclusion enrichment index
1,AGUUACCACCGGGAGCUCCAGCACGUUGAAAUGGACAGAAGGGCAGAGCAA,3.09
2,AGUUUCUUUUGGGAGCUCCAGCACAGUGAAAUGGACAGAAGGGCAGUACAA,0.0727
3,AGUUCUUCUCGGGAGCUCCAGCACAGUGAAAUGGACAGAAGGGAGGAGCAA,2.98
4,AGUUCGCGCCGGGAGCUCCAGCACAGAGAAAUGGACAGAAGGGCAGAGCAA,3.66
5,AGUUGACGACGGGAGCUCCAGCACAGUGAAAGUGACAGAAGGGCAGAGCAA,1.91
6,AGUUACACCCGGGAGCUCCAGCACAGUGAAAUGGACAGAAGGGCAGAGCAA,1.42
7,AGUUCGCGCCGUUAGCUCCAGCACAGUGAAAUGGACAGAAGGGCAGAGCAA,0.206
8,AGUUGAAGAAGGGAGAUCCAGCACAGUGAAAUGGACAGAAGGGCAGAGCAA,0.669
9,AGUUGAAGAAGAUAGCUCCAGCACAGUGAAAUGGACAGAAGGGCAGAGCAA,0.801
10,AGUUAUAUAUGUAAGCUCCAGCACAGUGAAAUGGACAGAAGGGCAGAGCAA,0.00185
11,AGUUACCACCGGGAGCUCCAGCACAGUGAAAUGGACAGAAGGGCGGAGCAA,3.76
12,AGUUGCUGCUGGGAGCUCCAGCACCUUGAAAUGGACAGAAGGGCAGAGCAA,0.368
13,AGUUCGCGCCGGGAGCUCCAUAACAGUGAAAUGGACAGAAGGGCAGAGCAA,1.73
14,AGUUCACACAGGGAGCUCCAGCACAGUGAAAUGGCCAGAAGGGCAGAGCAA,0.0232
15,AGUUAGGGAUGGGAGCUCCAGCACAGUGAAAUGGACAGAAGGGCAGAGCAA,0.00225
16,AGUUAUAUAUGGGAGCUCCAGCACAGUGAAAUGGCAAGAAGGGCAGAGCAA,0.0286
17,AGUUGCUGCUGGGAGCUCCAGCACAGUGAAAUGGAAAGAAGGGCAGAGCAA,0.0939
18,AGUUGCUGCUGGGAGCUCCAGCACAGUGAAAUGGAUAGAAGGGCAGAGCAA,0.0249
19,AGUUCUUCUCGGGAGCUCCAGCACAGUGAAAUGGACAGAAUGGCAGAGCAA,2.03
20,AGUUCACACAGGGAGCUCCAGCACAGUGAAAUGGACAGAAGGGCAGUUCAA,0.111
21,AGUUGAAGAAGGGAGCUCCAGCACAGUCUAAUGGACAGAAGGGCAGAGCAA,0.358
22,AGUUCACACAGGGAGCUCCAGCACAGUGAAAUGGUGAGAAGGGCAGAGCAA,0.00777
23,AGUUCUUCUCGGGAGCUCCAGCACAGUGAAAUGGACAGAAGGGCAGGGCAA,0.327
24,AGUUAAAUAUGGGAGCUCCAGCACAGUGAAAUGGACAGAAGGGCAGAGCAA,0.0639
25,AGUUCACACAGGGAGCUCCAGCACAGUGAAAUGGACAGAAGGGGAGAGCAA,0.198
26,AGUUUCUUUUGGGAGCUCCAGCACAGUGAAAUGGACAGAAGGGCAGGCCAA,0.0267

row,Variant,exon inclusion enrichment index
1,AGUUAGGGAUGGGAGUUCCAGCACAGUGAAAUGGACAGAAGGGCAGAGCAA,0.000705
2,AGUUACCACCGGGAGCUCCACAACAGUGAAAUGGACAGAAGGGCAGAGCAA,2.27
3,AGUUACCACCGGGAGCUCCACGACAGUGAAAUGGACAGAAGGGCAGAGCAA,3.61
4,AGUUAGGGAUGGGAUGUCCAGCACAGUGAAAUGGACAGAAGGGCAGAGCAA,0.00106
5,AGUUCACACAGGGAGCUCCAGCACAGUGAAAUGGACAGAAGUGCAGAGCAA,0.154
6,AGUUCACACAGGGAGCUCCAGCACAGUGAAAUGGACAGAAGGACAGAGCAA,0.595
7,AGUUACCACCGGGAGCUCCAGCACAGUGAAAUGGACAGAAGUCCAGAGCAA,1.5
8,AGUUGAAGAAGGGAGCUCCAGCACAGUGAAAUGGACAGAUGGGCAGAGCAA,0.579
9,AGUUUCUACUGGGAGCUCCAGCACAGUGAAAUGGACAGAAGGGCAGAGCAA,1.23
10,AGUGACCACCGGGAGCUCCAGCACAGUGAAAUGGACAGAAGGGCAGAGCAA,3.1
11,AGUUAUAUAUGGGAGCUCCAGCACAGUGAAACAGACAGAAGGGCAGAGCAA,0.0199
12,AGUUGACGGCGGGAGCUCCAGCACAGUGAAAUGGACAGAAGGGCAGAGCAA,2.55
13,AGUUUCUUUUGGGAGCUCCAGCACAGUGAAAUGGACAGAAGUCCAGAGCAA,0.0971
14,AGUUAUAUAUGGGAGCUCCAGCACAGUGAAAUGGACAGAAAUGCAGAGCAA,0.0659
15,AGUUGAAGAAGGGAGCUCCAGCACAGUGAAAUGGACAUCAGGGCAGAGCAA,0.692
16,AGUUGACGACGGGAGCUCCAGCACAGUGAAAUACACAGAAGGGCAGAGCAA,1.06
17,AGUUCUUCUCGGGAGCUCCAGCACAGUGAAAUGGACAGAAGGUGAGAGCAA,0.398
18,AGUUCACACAGGGAGCUCCAGCACAGUGAAAUGGACAGCUGGGCAGAGCAA,0.0879
19,AGUUUCUUUUGGGAGCUCCAGCACAGUGAAAUGGACACCAGGGCAGAGCAA,0.152
20,AGUUAUAUAUGGGAGCUCCAGCCUAGUGAAAUGGACAGAAGGGCAGAGCAA,0.00662
21,AGUUACCACCGGGAGCUCCAGCACAGUGAAAUAAACAGAAGGGCAGAGCAA,0.398
22,AGUUGCUGCUGGGAGCUCCAGCACACUGAAAUGGACAGAAGGGCAGAGCAA,0.156
23,AGUUCUUCUCGGGAGCUCCCCCACAGUGAAAUGGACAGAAGGGCAGAGCAA,0.524
24,AGUUAGGGAUGGGAGCUCCGUCACAGUGAAAUGGACAGAAGGGCAGAGCAA,0.00168

# Source: the RNAGym collection of RNA variant scans (doi:10.1101/gr.219683.116)
